The results in this text go back to patent publication US20240207432A1 (BIOSION, published 2024).

Experiment [1] deals with T1, human TROP2-his protein (human, UniProt P09758 27-274).
T1 construct: Biotin-labelled in the ELISAs, unlabelled analyte in Biacore; also called biotin-labeled human TROP2-his protein; biotin human Trop2-his
T1 sequence: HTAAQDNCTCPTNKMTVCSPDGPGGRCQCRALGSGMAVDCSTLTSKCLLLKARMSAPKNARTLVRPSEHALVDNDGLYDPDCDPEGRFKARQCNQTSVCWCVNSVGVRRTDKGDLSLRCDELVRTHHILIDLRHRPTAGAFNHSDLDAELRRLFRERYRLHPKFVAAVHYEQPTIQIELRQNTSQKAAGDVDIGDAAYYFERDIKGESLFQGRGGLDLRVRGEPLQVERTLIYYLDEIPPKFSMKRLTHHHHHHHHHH
Description: competitive ELISA: mouse A1E4F7D4 coated at 2 ug/mL, antibody premixed with biotin human TROP2-his; blocked: binding of TROP2-his to coated A1E4F7D4; no lower plateau reached at 80 nM. On the procedure:
The mouse anti-TROP2 antibodies were tested for epitope binding in a competitive ELISA assay. […] ELISA plates were washed once with wash buffer (PBS+0.05% v/v Tween-20, PBST) and then blocked with 200 μl blocking buffer (5% w/v non-fatty milk in PBST) for 2 hours at 37° C. While blocking, the anti-TROP2 antibodies or controls were diluted with biotin labeled human TROP2-his protein (SEQ ID NO: 67, 34 ng/mL in 2.5% wA non-fatty milk in PBST), starting at 80 nM with a 5-fold serial dilution, and incubated at room temperature for 40 minutes. After plate washing for 4 times, the antibody/TROP2-his protein mixtures were added to the antibody coated plates, 100 μl per well. After incubation at 37° C. for 40 minutes, plates were washed 4 times again using wash buffer. Then the plates were added and incubated with 100 μl Peroxidase Streptavidin (1:10000 dilution in PBST buffer. Jackson Immunoresearch, Cat #016-030-084) for 40 minutes at 37° C. Plates were washed again using wash buffer. Finally, TMB was added and the reaction was stopped using 1M H₂SO₄. The absorbance of each well was read on a microplate reader using dual wavelength mode with 450 nm for TMB and 630 nm as the reference wavelength, and the OD (450-630) values were plotted against antibody concentration. Data was analyzed using Graphpad Prism software and IC₅₀ values were reported.
(An ELISA detects its analyte on a solid surface through an enzyme-linked reagent.)

Experiment [2] deals with T1, human TROP2-his protein. Description: SPR Biacore, human TROP2-his analyte.
Experiment [3] deals with T2, cynomolgus TROP2-his protein (cynomolgus monkey, UniProt P09758 27-272 (human entry), limits assumed).
T2 construct: no cleavage site is stated; also called Cynomolgus monkey TROP2-his protein; monkey TROP2
T2 chain: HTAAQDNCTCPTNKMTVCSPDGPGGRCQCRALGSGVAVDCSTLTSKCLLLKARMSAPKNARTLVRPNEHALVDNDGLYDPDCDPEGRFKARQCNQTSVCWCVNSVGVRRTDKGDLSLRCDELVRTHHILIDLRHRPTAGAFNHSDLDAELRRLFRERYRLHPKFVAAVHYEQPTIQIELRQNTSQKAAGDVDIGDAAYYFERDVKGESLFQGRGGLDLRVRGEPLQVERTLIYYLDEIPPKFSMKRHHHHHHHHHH
Put plainly: SPR Biacore, antibody captured on chip, TROP2-his analyte. On the technique in general: In SPR one partner is held on a chip, and binding of the other changes the refractive index at the surface.

Experiment [4] has as its target T1, human TROP2-his protein. Put plainly: capture ELISA, captured antibody, biotin human TROP2-his in solution, OD(450-630).
In experiment [5] the target is T2, cynomolgus TROP2-his protein. Description: indirect ELISA, cynomolgus TROP2-his coated at 2 ug/mL, OD(450-630). On the procedure: The anti-TROP2 antibodies of the disclosure were tested for their cross-reaction with cynomolgus TROP2 proteins. Briefly, 96-well micro plates were coated with 100 μl 2 μg/ml cynomolgus TROP2-his proteins (prepared in-house with SEQ ID NO: 70) in carbonate/bicarbonate buffer (pH 9.6) overnight at 4° C. ELISA plates were washed once with wash buffer (PBS+0.05% v/v Tween-20, PBST) and then blocked with 200 μl/well blocking buffer (5% w/v non-fatty milk in PBST) for 2 hours at 37° C. […] After a final wash, plates were incubated with 100 μl/well TMB (Innoreagents) at room temperature. The reaction was stopped 3-10 minutes later at room temperature with 50 μl/well 1M H₂SO₄, and the absorbance of each well was read on a microplate reader using dual wavelength mode with 450 nm for TMB and 630 nm as the reference wavelength. The OD (450-630) values were plotted against antibody concentration. Data was analyzed using Graphpad Prism software and EC₅₀ values were reported.

For experiment [6], the target named is T1, human TROP2-his protein. Description: competitive ELISA: BM1 coated, antibody premixed with biotin human TROP2-his; blocked: binding of TROP2-his to coated BM1 (self-competition), OD falls from about 1.9 to about 0.05.
The target of experiment [7] is T1, human TROP2-his protein. Description: capture ELISA, antibody captured on anti-human IgG Fc coat, biotin human TROP2-his in solution, OD(450-630). On the procedure: Plates were washed once with wash buffer (PBS+0.05% v/v Tween-20, PBST) and then blocked with 200 μl/well blocking buffer (5% w/v non-fatty milk in PBST) for 2 hours at 37° C. […] Plates containing captured anti-TROP2 antibodies were incubated with biotin-labeled human TROP2-his protein (prepared in house, SEQ ID NO: 67, 56.7 ng/mL in 2.5% w/v non-fatty milk in PBST, 100 μl/well) for 40 minutes at 37° C., washed 4 times, and incubated with streptavidin conjugated HRP (1:10000 dilution in PBST, Jackson Immuno Research, Cat #016-030-084, 100 μl/well) for 40 minutes at 37° C. After a final wash, plates were incubated with 100 μl/well ELISA substrate TMB (Innoreagents, Cat #TMB-S-002) at room temperature. The reaction was stopped in 3-10 minutes at room temperature with 50 μl/well 1M H₂SO₄, and the absorbance of each well was read on a microplate reader using dual wavelength mode with 450 nm for TMB and 630 nm as the reference wavelength. The OD (450-630) values were plotted against antibody concentration. Data was analyzed using Graphpad Prism software and EC₅₀ values were reported.
For the capture ELISA, AffiniPure Goat Anti-Human IgG, Fcγ fragment specific (Jackson Immuno Research, Cat #109-005-098) was used instead of AffiniPure Goat Anti-Mouse IgG, Fcγ fragment specific, 100 μl/well.

B1: mouse antibody A1H3C5H8E12 (antibody, V domains shown)
VH: QVQLQQSGAELVRPGTSVKMSCKAAGYTFTNYWIDWVKQRPGHGLEWIGNIFPGGFYTNYNEKFKGKATLTADTSSSTAYMQLSSLTSEDSAIYYCARGGVFDYWGQGTTLTVSS
VL: DILLTQSPAILSVSPGERVSFSCRASQSIGTSIHWYQQRTNGSPRLLIKYASESISGIPSRFSGSGSGTDFTLSINSVESEDIADYYCQQSNSWPYTFGGGTKLEIK
notes: Mouse monoclonal IgG purified from hybridoma supernatant
One may read the IC50 as the point on the concentration scale where inhibition reaches its midpoint. For B1, in the experiment with human TROP2-his protein [1], the IC50 was 4.09 nM.

B2: huA1E4F7D4-V16 (antibody, human IgG1, kappa, V domains shown)
VH: QVQLVQSGAEVKKPGASVKVSCKASGYSFTTHWIHWVRQAPGQGLEWIGTIFPSNAYAVYNQKFRDRATMTADTSISTAYIELSRLRSDDTAVYYCARASYFDYWGQGTTVTVSS
VL: EIVLTQSPATLSLSPGERATLSCRASQNIGTSIHWFQQKPGGAPRLLIKYASESISGIPSRFSGSGSGTDFTLTISSLEPEDFAVYYCQHSHSWPFTFGQGTKLEIKR
notes: Positions of the X residues are given in the claims; also called humanized antibody huA1E4F7D4-V16
As a reminder, the Kd is the concentration at which binding is half-saturated. The term koff denotes the rate constant with which the complex falls apart. Low values mean slow dissociation, high ones fast dissociation. The term kon denotes the second-order rate constant of association. Read a high kon as fast association. For B2, in the experiment with human TROP2-his protein [2], the Kd was 0.196 nM, the koff stood at 7.92e-05 s⁻¹ and the kon is 404000 M⁻¹ s⁻¹.

B3: mouse antibody A1E4F7D4 (antibody, V domains shown)
VH: QVQLQQSGAELAKPGTSVKMSCEASGYSFTTHWIHWMKQRPGQGLEWIGTIFPSNAYAVYNQKFRDRAIMTADRSSTTAYIQLTGLTSEDSAVYYCARASYFDYWGQGTTLTVSS
VL: DILLTQSPATLSVSPGERVTFSCRASQNIGTSIHWFQQRTTGSPRLLIKYASESISGIPSRFSGSGSGTDFTLHINSVESEDIAHYYCQHSHSWPFTFGSGTKLEIQ
notes: Mouse monoclonal IgG purified from hybridoma supernatant; also called Mouse A1E4F7D4
What is called EC50 is the concentration that produces a half-maximal response. High values mean weaker potency, low ones greater potency. Consider B3, for which, in experiment [3], the Kd is 0.0489 nM, the koff turned out to be 4.54e-05 s⁻¹ and the on-rate constant (kon) was 930000 M⁻¹ s⁻¹. This molecule also showed an EC50 with human TROP2-his protein [4] of 0.147 nM.

B4: benchmark (in house prepared sacituzumab) (antibody, human IgG1, kappa, V domains shown)
VH: SVQLQQSGSELKKPGASVKVSCKASGYTFTNYGMNWVKQAPGQGLKWMGWINTYTGEPTYTDDFKGRFAFSLDTSVSTAYLQISSLKADDTAVYFCARGGFGSSYWYFDVWGQGSLVTVSS
VL: DIQLTQSPSSLSASVGDRVSITCKASQDVSIAVAWYQQKPGKAPKLLIYSASYRYTGVPDRFSGSGSGTDFTLTISSLQPEDFAVYYCQQHYITPLTFGAGTKVEIKR
notes: also called BM; BM1
Turning to B4, the EC50 in experiment [5] worked out at 0.385 nM; in the experiment with human TROP2-his protein [7], 0.357 nM. Further, in the experiment with human TROP2-his protein [6], the IC50 turned out to be 0.88 nM.

B5: mouse antibody C1B3B12D2 (antibody, V domains shown)
VH: QVQLQQSGPELVRPGTSVKMSCKAAGYTFTKFWIGWVKQRPGHGLEWIGNIYPGGAYINYNENFKGKATLTADTFSSTAYMQLNSLTSADSAIYYCAREGSSGYWGQGTTLTVSS
VL: DIVMTQSPSSLTVTAGEKVTLSCKCSQSLLNSGTQENYLTWYQQKPGQPPKMLIYWASIREPGVPDRFTGSGSGTDFTLTINNVQAEDLAVYYCQHDYSYPFTFGSGTKLEIK
notes: as for B1
One may read the EC50 (read off the curve) as the concentration needed to bring the measured effect to its halfway point. A high value points to lower potency in that assay. For the molecule B5, the “EC50 (read off the curve)” value in experiment [5] is ~0.6 nM.
